The assay addresses AtoB (Aspergillus ochraceus LZDX-32-15). As to the kind of experiment: crystal structure.

The term stoichiometry N denotes a count of units in the complex or per binding partner. Consider AtoB (enzyme), for which the stoichiometry N is 2.

These data come from publication PMC11485096.
